Measured values from the Immune Epitope Database (IEDB).

Experiments:
Experiment in all cases: IEDB peptide-MHC binding, purified MHC/competitive/radioactivity; filed as Kd, often an IC50 or EC50 that approximates it; ≥ and ≤ were set here for values at or beyond the usual limits of such assays
HLA-A*31:01 = biological target: HLA-A*31:01
HLA-A*11:01 = biological target: HLA-A*11:01
HLA-A*03:01 = biological target: HLA-A*03:01
HLA-A*33:01 = biological target: HLA-A*33:01
HLA-A*68:01 = biological target: HLA-A*68:01
[1] = source organism: Vaccinia virus WR
[2] = source organism: Dengue virus 4 Philippines/H241/1956
[3] = source organism: Dengue virus 2 Jamaica/1409/1983
[4] = source organism: Dengue virus 3 Martinique/1243/1999
[5] = source organism: SARS coronavirus ZJ0301
[6] = source organism: Dengue virus 1 Brazil/97-11/1997
[7] = source organism: SARS coronavirus Tor2
[8] = source organism: Vaccinia virus Copenhagen
[9] = source organism: Mammarenavirus brazilense
[10] = source organism: Mammarenavirus whitewaterense
[11] = source organism: Lymphocytic choriomeningitis virus (strain Armstrong)
[12] = source organism: Dengue virus 3 Sri Lanka/1266/2000
[13] = source organism: Dengue virus 2 Peru/IQT2913/1996

KIAPGIADIR
Kd (HLA-A*31:01; [1]): 0.355 µM
Kd (HLA-A*11:01; [1]): 4.51 µM
Kd (HLA-A*03:01; [1]): 1.66 µM
Kd (HLA-A*33:01; [1]): ≥ 53.9 µM
Kd (HLA-A*68:01; [1]): 5.4 µM

KIEEIEKVEK
Kd (HLA-A*31:01; [1]): 9.01 µM
Kd (HLA-A*11:01; [1]): 0.709 µM
Kd (HLA-A*03:01; [1]): 1.52 µM
Kd (HLA-A*33:01; [1]): ≥ 47 µM
Kd (HLA-A*68:01; [1]): 0.417 µM

KLGEFGRAK
Kd (HLA-A*03:01; [2]): 0.00175 µM

KSSSIDVDK
Kd (HLA-A*31:01; [1]): 17.7 µM
Kd (HLA-A*11:01; [1]): 0.161 µM
Kd (HLA-A*03:01; [1]): 14.2 µM
Kd (HLA-A*33:01; [1]): ≥ 77.7 µM
Kd (HLA-A*68:01; [1]): 8.59 µM

LFLEEMLRTR
Kd (HLA-A*31:01; [3]): 0.732 µM
Kd (HLA-A*33:01; [3]): 0.685 µM

LFMALVAFLR
Kd (HLA-A*31:01; [3]): 0.0955 µM
Kd (HLA-A*33:01; [3]): 0.0932 µM
Kd (HLA-A*68:01; [3]): 0.192 µM

LFMEMFFDY
Kd (HLA-A*31:01; [1]): 13 µM
Kd (HLA-A*11:01; [1]): ≥ 59.5 µM
Kd (HLA-A*03:01; [1]): ≥ 37.6 µM
Kd (HLA-A*33:01; [1]): ≥ 56.1 µM
Kd (HLA-A*68:01; [1]): ≥ 70.2 µM

LFTSTNDKIK
Kd (HLA-A*31:01; [1]): ≥ 65.6 µM
Kd (HLA-A*11:01; [1]): 0.915 µM
Kd (HLA-A*03:01; [1]): ≥ 24.9 µM
Kd (HLA-A*33:01; [1]): ≥ 55.2 µM
Kd (HLA-A*68:01; [1]): 0.531 µM

LFYPSMFTLR
Kd (HLA-A*31:01; [1]): 0.00133 µM
Kd (HLA-A*11:01; [1]): 7.33 µM
Kd (HLA-A*03:01; [1]): 1.59 µM
Kd (HLA-A*33:01; [1]): 0.0289 µM
Kd (HLA-A*68:01; [1]): 0.00266 µM

LISYGGGWK
Kd (HLA-A*03:01; [3]): 0.338 µM

LLACTDPSER
Kd (HLA-A*31:01; [1]): 1.26 µM
Kd (HLA-A*11:01; [1]): ≥ 37 µM
Kd (HLA-A*03:01; [1]): ≥ 70.1 µM
Kd (HLA-A*33:01; [1]): 2.42 µM
Kd (HLA-A*68:01; [1]): 0.856 µM

LLALNDMGK
Kd (HLA-A*03:01; [4]): 0.294 µM

LLMHLVSLYK
Kd (HLA-A*31:01; [1]): 0.0851 µM
Kd (HLA-A*11:01; [1]): 0.000379 µM
Kd (HLA-A*03:01; [1]): 0.00122 µM
Kd (HLA-A*33:01; [1]): 15.8 µM
Kd (HLA-A*68:01; [1]): 0.0175 µM

LLNSNALLR
Kd (HLA-A*31:01; [5]): 0.148 µM
Kd (HLA-A*11:01; [5]): 0.222 µM
Kd (HLA-A*03:01; [5]): 0.0147 µM
Kd (HLA-A*33:01; [5]): 6.98 µM
Kd (HLA-A*68:01; [5]): 0.687 µM

LLPSTDVNK
Kd (HLA-A*31:01; [1]): 17.3 µM
Kd (HLA-A*11:01; [1]): 5.54 µM
Kd (HLA-A*03:01; [1]): 5.01 µM
Kd (HLA-A*33:01; [1]): ≥ 77.7 µM
Kd (HLA-A*68:01; [1]): 6.95 µM

LLSCIRNASK
Kd (HLA-A*31:01; [1]): 0.822 µM
Kd (HLA-A*11:01; [1]): 0.0293 µM
Kd (HLA-A*03:01; [1]): 0.0662 µM
Kd (HLA-A*33:01; [1]): 16.7 µM
Kd (HLA-A*68:01; [1]): 0.195 µM

LMKSLGGGR
Kd (HLA-A*31:01; [6]): ≥ 57.6 µM

LTPIFSDLLK
Kd (HLA-A*31:01; [1]): 4.12 µM
Kd (HLA-A*11:01; [1]): 0.00237 µM
Kd (HLA-A*03:01; [1]): 0.0241 µM
Kd (HLA-A*33:01; [1]): 3.9 µM
Kd (HLA-A*68:01; [1]): 0.0172 µM

MAVEVGSIR
Kd (HLA-A*31:01; [1]): 0.279 µM
Kd (HLA-A*11:01; [1]): 0.0395 µM
Kd (HLA-A*03:01; [1]): ≥ 78 µM
Kd (HLA-A*33:01; [1]): 0.245 µM
Kd (HLA-A*68:01; [1]): 0.00136 µM

MIEEVMRSR
Kd (HLA-A*33:01; [6]): 0.0908 µM

MLVTPSMAMR
Kd (HLA-A*31:01; [6]): ≥ 51.7 µM
Kd (HLA-A*33:01; [6]): 0.0346 µM
Kd (HLA-A*68:01; [6]): 0.032 µM

MVSRLLLNR
Kd (HLA-A*31:01; [4]): 0.00481 µM
Kd (HLA-A*11:01; [4]): 0.0499 µM
Kd (HLA-A*33:01; [4]): 0.00831 µM
Kd (HLA-A*68:01; [4]): 0.013 µM

NATFFIFNK
Kd (HLA-A*31:01; [7]): 1.71 µM
Kd (HLA-A*11:01; [7]): 0.0873 µM
Kd (HLA-A*03:01; [7]): 0.386 µM
Kd (HLA-A*33:01; [7]): 0.0873 µM
Kd (HLA-A*68:01; [7]): 0.0195 µM

NFITKEIKNR
Kd (HLA-A*31:01; [1]): 1.07 µM
Kd (HLA-A*11:01; [1]): ≥ 69.8 µM
Kd (HLA-A*03:01; [1]): ≥ 70.1 µM
Kd (HLA-A*33:01; [1]): 0.168 µM
Kd (HLA-A*68:01; [1]): 0.526 µM

NFLRSIAMLK
Kd (HLA-A*31:01; [1]): 0.00991 µM
Kd (HLA-A*11:01; [1]): 0.316 µM
Kd (HLA-A*03:01; [1]): 0.0746 µM
Kd (HLA-A*33:01; [1]): 0.07 µM
Kd (HLA-A*68:01; [1]): 0.272 µM

NISFKSINK
Kd (HLA-A*31:01; [1]): 9.77 µM
Kd (HLA-A*11:01; [1]): 0.0413 µM
Kd (HLA-A*03:01; [1]): 0.0149 µM
Kd (HLA-A*33:01; [1]): 3.18 µM
Kd (HLA-A*68:01; [1]): 0.119 µM

NLCTHSFRK
Kd (HLA-A*31:01; [7]): 13.6 µM
Kd (HLA-A*11:01; [7]): 7.9 µM
Kd (HLA-A*03:01; [7]): 2.43 µM
Kd (HLA-A*33:01; [7]): 9.7 µM
Kd (HLA-A*68:01; [7]): ≥ 24.4 µM

NLLVQYGAK
Kd (HLA-A*31:01; [1]): ≥ 20.8 µM
Kd (HLA-A*11:01; [1]): 12.6 µM
Kd (HLA-A*03:01; [1]): 0.274 µM
Kd (HLA-A*33:01; [1]): ≥ 22.3 µM
Kd (HLA-A*68:01; [1]): 2.49 µM

NSVANRSKQK
Kd (HLA-A*31:01; [1]): 17 µM
Kd (HLA-A*11:01; [1]): 0.525 µM
Kd (HLA-A*03:01; [1]): 0.322 µM
Kd (HLA-A*33:01; [1]): ≥ 70 µM
Kd (HLA-A*68:01; [1]): 0.568 µM

NTFVNFNSVK
Kd (HLA-A*31:01; [8]): 1.67 µM
Kd (HLA-A*11:01; [8]): 0.0659 µM
Kd (HLA-A*03:01; [8]): 0.0746 µM
Kd (HLA-A*33:01; [8]): 0.856 µM
Kd (HLA-A*68:01; [8]): 0.0398 µM

NYILCYRKPH
Kd (HLA-A*31:01; [9]): 11.6 µM
Kd (HLA-A*11:01; [9]): ≥ 69.7 µM
Kd (HLA-A*03:01; [9]): 5.31 µM
Kd (HLA-A*33:01; [9]): 2.2 µM
Kd (HLA-A*68:01; [9]): ≥ 24.5 µM

NYLDYMTSMK
Kd (HLA-A*33:01; [6]): 0.173 µM

PMPCMINDTH
Kd (HLA-A*31:01; [10]): ≥ 70 µM
Kd (HLA-A*11:01; [10]): ≥ 69.7 µM
Kd (HLA-A*03:01; [10]): ≥ 70 µM
Kd (HLA-A*33:01; [10]): ≥ 70 µM
Kd (HLA-A*68:01; [10]): ≥ 70.1 µM

QAEPSLYGRH
Kd (HLA-A*31:01; [9]): ≥ 20 µM
Kd (HLA-A*11:01; [9]): ≥ 69.7 µM
Kd (HLA-A*03:01; [9]): ≥ 70 µM
Kd (HLA-A*33:01; [9]): ≥ 70 µM
Kd (HLA-A*68:01; [9]): ≥ 70.1 µM

QFKQDSKYSH
Kd (HLA-A*31:01; [11]): 13 µM
Kd (HLA-A*11:01; [11]): ≥ 69.7 µM
Kd (HLA-A*03:01; [11]): ≥ 70 µM
Kd (HLA-A*33:01; [11]): 2.91 µM
Kd (HLA-A*68:01; [11]): ≥ 70.1 µM

RMLNILNGR
Kd (HLA-A*31:01; [2]): 0.00116 µM

RVSTPQGLVK
Kd (HLA-A*11:01; [2]): 0.0542 µM
Kd (HLA-A*03:01; [2]): 0.00593 µM

SIFAGHLKCR
Kd (HLA-A*33:01; [4]): 0.116 µM

TAMAFHLSTR
Kd (HLA-A*31:01; [2]): 0.0343 µM
Kd (HLA-A*33:01; [2]): 0.0167 µM
Kd (HLA-A*68:01; [2]): 0.00851 µM

TIFTLTVAWR
Kd (HLA-A*31:01; [12]): 0.395 µM
Kd (HLA-A*33:01; [12]): 0.391 µM
Kd (HLA-A*68:01; [12]): 0.0873 µM

TSEVHWNYK
Kd (HLA-A*11:01; [2]): 0.0849 µM

VIDPRRCLK
Kd (HLA-A*11:01; [6]): 1.5 µM
Kd (HLA-A*03:01; [6]): 0.0493 µM

VMAFHLTTR
Kd (HLA-A*31:01; [13]): 0.00739 µM
Kd (HLA-A*03:01; [13]): 0.0517 µM

VTNHMEGEHK
Kd (HLA-A*11:01; [3]): 0.508 µM

YLALIATFK
Kd (HLA-A*03:01; [4]): 0.0047 µM
Kd (HLA-A*68:01; [4]): 0.0318 µM
